# Positions count from the first letter of the chain named. Where no end group is shown, it is not given here. [ ]: non-standard residue; d: D form. The star is where a group is joined. pNA = O=[N+]([O-])c1ccc(N*)cc1; AlaP = not defined here; Ahx = NCCCCCC(=O)O; pentyl = CCCCC*
# Assays:
# Elastase = molecular target: T1, Elastase (Homo sapiens, UniProt P08246); assay: Protease inhibition assay, second order rate constant kobs/[I] (method of Tian and Tsou); assay type: biochemical; conditions: n.s where no significant inhibition
# T1 sequence (P08246 30-267): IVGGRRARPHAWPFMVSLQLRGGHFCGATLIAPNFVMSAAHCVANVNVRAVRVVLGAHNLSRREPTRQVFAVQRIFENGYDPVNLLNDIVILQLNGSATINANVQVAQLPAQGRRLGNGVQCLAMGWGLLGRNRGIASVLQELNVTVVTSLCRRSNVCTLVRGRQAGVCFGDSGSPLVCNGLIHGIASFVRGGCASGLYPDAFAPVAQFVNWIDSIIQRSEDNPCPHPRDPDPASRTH
# Description: (§1) The inactivation of proteases by substrate analog inhibitors in the presence of the substrate by competition for the enzyme-binding site, was measured by the method of Tian and Tsou (17). In this system, product formation in the presence of an irreversible inhibitor approaches an asymptote, as described by
# (§2) log([P∞]−[P])=log [P∞]−0.43A[Y]t
# (§3) where [P∞] is the concentration of product formed at time approaching infinity, [P] is the concentration of product at time t, [Y] is the inhibitor concentration, and A is the apparent inhibition rate constant in the presence of the substrate. A is given by
# (§4) where k+0 is the rate constant for association of the inhibitor with the enzyme, K^−1 is the inverted Michaelis constant, and [S] the substrate concentration. The apparent inhibition rate constant A is the slope of a plot of log([P∞]−[P]) against t, to give the second-order rate constant of inhibition k+0
# Proteinase 3 = molecular target: T2, Proteinase 3 (Homo sapiens, UniProt P24158); assay: as above; assay type: biochemical; conditions: for kobs/I range: PR3; for effect of P5 group on kobs/I: ammonium, Trp or Ile at P5
# T2 sequence (P24158 28-248): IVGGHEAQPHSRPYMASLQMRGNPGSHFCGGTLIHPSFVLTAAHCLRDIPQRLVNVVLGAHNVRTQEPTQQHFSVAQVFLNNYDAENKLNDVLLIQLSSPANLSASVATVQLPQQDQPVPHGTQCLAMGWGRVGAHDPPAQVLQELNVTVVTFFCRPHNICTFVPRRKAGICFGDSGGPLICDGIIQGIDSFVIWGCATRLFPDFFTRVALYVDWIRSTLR
# Description: The compounds of the invention are advantageously selective inhibitors of PR3. […] As described under the Examples below (see PR3 inhibition assay), and as is generally known, efficacy of particular inhibitors against a target protease, for example, recombinant human PR3, is determined by combining the target with a substrate (for example Suc-AanV-SBzI), both in the absence of the inhibitor and in the present of different concentrations of such inhibitor to be tested. Typically, the efficacy of irreversible inhibitors are measured in terms of the second order rate constant of inhibition value (11) or kobs/l. Preferred inhibitors of the invention have typically a kobs/I of more than 10 M^−1s^−1, preferably more than 100 M^−1s^−1, and more preferably of more than […].
# as §1, §2, §3, §4
# PR3 [1] = molecular target: T3, PR3 (Homo sapiens, UniProt P24158); assay: Residual activity of purified protease with FRET substrate in presence of increasing amounts of compound; assay type: biochemical; conditions: PR3 1 nM final, 30 min incubation
# T3 construct: in a lysate of purified human neutrophils; endogenous in cells; host or cells: purified human neutrophils (lysate)
# T3 sequence (P24158 28-248): T2 sequence (P24158 28-248)
# Text: (§5) Phosphonate inhibitors and their biotinylated and fluorescent derivatives were synthesized, purified and controlled by mass spectrometry as reported. Their purity was checked by HPLC (data not shown). Purified Ac-Asp-Tyr-Asp-Ala^P(O—C6H4-4-Cl)2 (compound 1) and Ac-Pro-Tyr-Asp-Ala^P(O—C6H4-4-Cl)2 (compound 2) were first assayed for their inhibitory properties by measuring the residual activity of the human neutrophil serine proteases PR3, HNE and CatG in the presence of increasing amounts of each compound. We used for this purpose the FRET substrates that we developed previously for each protease (18). An almost complete inhibition of PR3 (1 nM final) was obtained after a 30 min incubation time with 20 μM of compound 1 (FIG. 1) and 0.3 μM of compound 2 (FIG. 2). Recombinant PR3K99L, […], HNE and CatG were used in the same experimental conditions. […] This emphasizes the importance of the S2 and S4 subsites to discriminate between PR3 and HNE specificities. Significant inhibition of HNE was obtained using about 100 times more Ac-Pro-Tyr-Asp-Ala^P(O—C6H4-4-Cl)2 than required to inhibit PR3. […] We confirmed this observation kinetically by measuring the second order rate constants kobs/l by competition experiments between the PR3 substrate and each inhibitor (17). As expected the second order rate constant kobs/l for compound 2 was about 100 times greater than that for compound 1 (see Table 1).
# CatG = molecular target: T4, CatG (Homo sapiens, UniProt P08311); assay: as above; assay type: biochemical; conditions: CatG 1 nM, same experimental conditions as PR3
# T4 sequence (P08311 21-244): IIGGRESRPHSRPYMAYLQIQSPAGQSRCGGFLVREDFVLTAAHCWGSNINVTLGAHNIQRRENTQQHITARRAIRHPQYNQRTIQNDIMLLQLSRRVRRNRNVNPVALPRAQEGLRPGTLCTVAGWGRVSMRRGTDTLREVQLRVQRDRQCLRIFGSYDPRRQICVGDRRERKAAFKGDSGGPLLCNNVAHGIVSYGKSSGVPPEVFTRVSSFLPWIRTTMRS
# Text: as §5
# HNE [2] = molecular target: T5, HNE (Homo sapiens, UniProt P08246); assay: as above; assay type: biochemical; conditions: HNE 1 nM, same experimental conditions as PR3
# T5 sequence (P08246 30-267): T1 sequence (P08246 30-267)
# Text: as §5
# PR3 [3] = molecular target: T3, PR3; assay: Inhibition of PR3 in a lysate of purified human neutrophils; assay type: biochemical; conditions: conditions as with purified proteases
# Text: (§6) We first studied the stability and the selectivity of compound 1, 2 and their biotinylated derivatives in a lysate of purified human neutrophils. […] Further, PR3 was selectively inactivated in the neutrophil lysate as shown by western blotting using biotinylated inhibitors.
# [4] = Stability of inhibitors in neutrophil lysate (preincubation before adding substrates); assay type: in vitro ADME, human; conditions: one hour preincubation of neutrophil lysate-inhibitor mixture
# Text: as §6
# PR3K99L = molecular target: T6, PR3K99L (Homo sapiens, UniProt P24158, K115L); assay: Residual activity of recombinant PR3 mutant in presence of increasing amounts of compound; assay type: biochemical; conditions: Lys99 replaced by Leu in S2 subsite
# T6 construct: made in house; host or cells: Drosophila S2 cells
# T6 sequence (P24158 28-248 K115L limits assumed): T2 sequence (P24158 28-248) with K88L
# Description: (§7) Recombinant PR3K99L and […] were produced in Drosophila S2 cells using the calcium phosphate method, and stable cell lines were selected using puromycin. Proteins were purified by affinity chromatography on Chelating Sepharose and analyzed by SDS-PAGE. The total protein concentration was determined with a BCA Protein Assay
# as §5
# PR3I217R = molecular target: T7, PR3I217R (Homo sapiens, UniProt P24158, I221R); assay: as above; assay type: biochemical
# T7 construct: made in house; host or cells: Drosophila S2 cells
# T7 sequence (P24158 28-248 I221R limits assumed): T2 sequence (P24158 28-248) with I194R
# Description: as §7, §5
# wtPR3 = molecular target: T8, wtPR3 (Homo sapiens, UniProt P24158); assay: Hydrolysis of paranitroanilide substrates, kcat/KM; assay type: biochemical
# T8 sequence (P24158 28-248): T2 sequence (P24158 28-248)
# Description: (§8) Then we used the peptidyl sequences DYDA- and PYDA- to construct two paranitroanlide substrates bearing this sequence from P4 to P1. Ac-DYDA-pNA and Ac-PYDA-pNA were assayed with purified PR3 and HNE and the specificity constants kcat/Km were determined. […] We then constructed phosphonate inhibitors with the same peptidyl sequence i.e. Ac-DYDA^P(Oph-p-Cl)2 and Ac-PYDA^P(Oph-p-Cl)2.
# HNE [5] = molecular target: T5, HNE; assay: Hydrolysis of paranitroanilide substrates, kcat/KM; assay type: biochemical
# Description: as §8
Substance,Elastase kobs/[I] (Elastase),Proteinase 3 kobs/[I] (Proteinase 3) [M⁻¹ s⁻¹],further results
Ac-Ahx-Pro-Tyr-Asp-Ala^P(O—C6H4-4-Cl)2 ({Ac-Ahx}-PYD[AlaP]; not fully specified (C-terminus); printed as Ac-Ahx-Pro-Tyr-Asp-Ala^P(O—C6H4-4-Cl)2; reading uncertain; also: C-terminal Ala as phosphonate analogue (Ala^P)) [Compound 9],n.s,2159 ± 235,kobs/I range (Proteinase 3): ~10^3 M^−1s^−1
Ac-Asp-Tyr-Asp-Ala^P(O—C6H4-4-Cl)2 (Ac-DYD[AlaP]; not fully specified (C-terminus); printed as Ac-Asp-Tyr-Asp-Ala^P(O—C6H4-4-Cl)2; reading uncertain; also: C-terminal Ala as phosphonate analogue (Ala^P)) [Compound 1],n.s,1.9 ± 0.3,concentration giving almost complete inhibition of PR3 (PR3 [1]): 20 µM; inhibition of CatG (CatG): no significant inhibition; inhibition of HNE (HNE [2]): no significant inhibition; PR3 activity in neutrophil lysate (PR3 [3]): totally inactivated; inhibition potential after preincubation in neutrophil lysate [4]: No loss of the inhibition potential; sensitivity of PR3K99L to inhibition compared with wt PR3 (PR3K99L): far less sensitive to inhibition; inhibition of the Ile217 to Arg217 PR3 mutant compared with PR3K99L (PR3I217R): more efficient toward this mutant
Ac-DYDA-pNA,,,cleavage by purified PR3 (wtPR3): rapidly cleaved; cleavage by purified HNE (HNE [5]): did not cleave
Ac-Ile-Pro-Tyr-Asp-Ala^P(O—C6H4-4-Cl)2 (Ac-IPYD[AlaP]; not fully specified (C-terminus); printed as Ac-Ile-Pro-Tyr-Asp-Ala^{P}(O—C₆H₄-4-Cl)₂; reading uncertain; also: C-terminal Ala as phosphonate analogue (Ala^P)) [Compound 12],15.1 ± 1.6 M⁻¹ s⁻¹,46 ± 0.1,effect of P5 group on kobs/I (Proteinase 3): did not significantly increase
Ac-PYDA-pNA,,,cleavage by purified PR3 (wtPR3): rapidly cleaved; cleavage by purified HNE (HNE [5]): did not cleave
Ac-Pro-Tyr-Phe-Ala^P(O—C6H4-4-Cl)2 (Ac-PYF[AlaP]; not fully specified (C-terminus); printed as Ac-Pro-Tyr-Phe-Ala^{P}(O—C₆H₄-4-Cl)₂; reading uncertain; also: C-terminal Ala as phosphonate analogue (Ala^P)) [Compound 7],n.s,2.1 ± 0.2,
Ac-Trp-Pro-Tyr-Asp-Ala^P(O—C6H4-4-Cl)2 (Ac-WPYD[AlaP]; not fully specified (C-terminus); printed as Ac-Trp-Pro-Tyr-Asp-Ala^{P}(O—C₆H₄-4-Cl)₂; reading uncertain; also: C-terminal Ala as phosphonate analogue (Ala^P)) [Compound 11],n.s,15 ± 0.1,effect of P5 group on kobs/I (Proteinase 3): did not significantly increase
Biotin-Asp-Tyr-Asp-Ala^P(O—C6H4-4-Cl)2 [Compound 3],n.s,18 ± 2.8,
Biotin-PEG3000-Pro-Tyr-Asp-Ala^P(O—C6H4-4-Cl)2 [Compound 13],46.5 M⁻¹ s⁻¹,1163 ± 0.1,
Biotin-Pro-Tyr-Asp-Avl^P(O—C6H4-4-Cl)2 [Compound 5],n.s,33360 ± 4150,
Biotin-Val-Tyr-Asp-Ala^P(O—C6H4-4-Cl)2 [Compound 6],n.s,17396 ± 835,
CH3(CH2)4-Pro-Tyr-Asp-Ala^P(O—C6H4-4-Cl)2 (pentyl-PYD[AlaP]; not fully specified (C-terminus); printed as CH3(CH2)4-Pro-Tyr-Asp-Ala^P(O—C6H4-4-Cl)2; reading uncertain; also: C-terminal Ala as phosphonate analogue (Ala^P)) [Compound 8],n.s,4418 ± 329,kobs/I range (Proteinase 3): ~10^3 M^−1s^−1
^+H2N-Pro-Tyr-Asp-Ala^P(O—C6H4-4-Cl)2 (H-PYD[AlaP]; not fully specified (C-terminus); printed as ^+H2N-Pro-Tyr-Asp-Ala^P(O—C6H4-4-Cl)2; reading uncertain; also: C-terminal Ala as phosphonate analogue (Ala^P)) [Compound 10],n.s,4.7 ± 0.5,effect of P5 group on kobs/I (Proteinase 3): did not significantly increase
